Data as given in patent US20260232827A1 (Zymeworks, published 2026).

What was measured:
cynomolgus monkey NaPi2b [1] = biological target: T1, cynomolgus monkey NaPi2b (cynomolgus monkey, UniProt O95436 1-690 (human entry)); test: flow cytometry on HEK293-6e cells transfected with cynomolgus monkey NaPi2b, 24 h at 4 C, anti-human IgG Fc AF647
T1 construct: also called Cyno NaPi2b; Cy NaPi2b
T1 chain: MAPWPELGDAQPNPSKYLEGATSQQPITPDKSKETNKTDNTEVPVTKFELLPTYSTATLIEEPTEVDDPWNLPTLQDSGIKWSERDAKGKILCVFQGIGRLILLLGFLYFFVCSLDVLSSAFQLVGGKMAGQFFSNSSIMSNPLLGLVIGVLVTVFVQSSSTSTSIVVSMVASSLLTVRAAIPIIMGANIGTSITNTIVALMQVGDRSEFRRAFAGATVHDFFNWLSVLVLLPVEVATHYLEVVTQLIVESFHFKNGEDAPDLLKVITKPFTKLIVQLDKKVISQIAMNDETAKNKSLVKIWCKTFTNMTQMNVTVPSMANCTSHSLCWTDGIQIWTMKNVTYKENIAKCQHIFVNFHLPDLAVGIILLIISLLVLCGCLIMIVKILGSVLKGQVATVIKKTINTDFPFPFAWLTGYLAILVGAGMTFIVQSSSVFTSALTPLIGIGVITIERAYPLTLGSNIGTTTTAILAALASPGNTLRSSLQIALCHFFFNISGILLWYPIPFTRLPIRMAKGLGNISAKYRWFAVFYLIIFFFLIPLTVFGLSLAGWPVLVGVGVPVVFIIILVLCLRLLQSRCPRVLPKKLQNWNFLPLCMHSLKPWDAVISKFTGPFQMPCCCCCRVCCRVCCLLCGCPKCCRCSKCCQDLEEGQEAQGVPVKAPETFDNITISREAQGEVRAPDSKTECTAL

mouse NaPi2b = biological target: T2, mouse NaPi2b (mouse, UniProt Q9DBP0 1-697); test: flow cytometry on HEK293-6e cells transfected with mouse NaPi2b, 24 h at 4 C, anti-human IgG Fc AF647
T2 construct: also called Ms NaPi2b; CL #13476
T2 sequence: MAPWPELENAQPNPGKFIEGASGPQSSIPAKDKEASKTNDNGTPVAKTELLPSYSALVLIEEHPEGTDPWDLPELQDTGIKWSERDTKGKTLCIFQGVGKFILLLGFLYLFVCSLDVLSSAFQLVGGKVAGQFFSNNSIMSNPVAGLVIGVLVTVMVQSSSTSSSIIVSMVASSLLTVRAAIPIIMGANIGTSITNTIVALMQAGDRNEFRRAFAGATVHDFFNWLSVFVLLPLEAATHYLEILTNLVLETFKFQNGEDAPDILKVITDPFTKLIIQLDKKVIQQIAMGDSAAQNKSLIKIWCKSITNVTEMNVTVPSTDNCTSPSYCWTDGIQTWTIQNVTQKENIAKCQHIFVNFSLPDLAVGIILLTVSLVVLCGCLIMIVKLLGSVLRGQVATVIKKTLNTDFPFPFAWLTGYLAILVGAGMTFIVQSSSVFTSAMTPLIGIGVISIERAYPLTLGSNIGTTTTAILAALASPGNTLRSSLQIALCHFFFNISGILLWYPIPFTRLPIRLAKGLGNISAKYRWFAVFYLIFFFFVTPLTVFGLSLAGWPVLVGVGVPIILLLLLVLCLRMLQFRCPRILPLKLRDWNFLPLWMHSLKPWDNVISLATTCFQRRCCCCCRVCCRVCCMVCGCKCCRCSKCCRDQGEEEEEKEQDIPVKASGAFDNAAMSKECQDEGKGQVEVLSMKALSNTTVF

[2] = biological target: T3, Construct 3 (chimeric human NaPi2b, swap in NaPi2c in 304-321) (human); test: flow cytometry, transfected HEK293-6e cells, antibody 20 nM
T3 construct: also called CL_#29916

cynomolgus monkey NaPi2b [3] = biological target: T1, cynomolgus monkey NaPi2b; test: flow cytometry, HEK293-6e cells transfected with cynomolgus NaPi2b
cynomolgus monkey NaPi2b [4] = biological target: T1, cynomolgus monkey NaPi2b; test: flow cytometry, HEK293-6e cells transfected with cynomolgus NaPi2b; apparent Kd
[5] = biological target: T4, human sodium-dependent phosphate transporter 2B (NaPi2b) (human, UniProt O95436 1-690); test: flow cytometry, HEK293-6e cells transfected with human NaPi2b
T4 construct: UniProt ID is given as 095436 [sic]; also called hNaPi2b; Hu NaPi2b
T4 sequence: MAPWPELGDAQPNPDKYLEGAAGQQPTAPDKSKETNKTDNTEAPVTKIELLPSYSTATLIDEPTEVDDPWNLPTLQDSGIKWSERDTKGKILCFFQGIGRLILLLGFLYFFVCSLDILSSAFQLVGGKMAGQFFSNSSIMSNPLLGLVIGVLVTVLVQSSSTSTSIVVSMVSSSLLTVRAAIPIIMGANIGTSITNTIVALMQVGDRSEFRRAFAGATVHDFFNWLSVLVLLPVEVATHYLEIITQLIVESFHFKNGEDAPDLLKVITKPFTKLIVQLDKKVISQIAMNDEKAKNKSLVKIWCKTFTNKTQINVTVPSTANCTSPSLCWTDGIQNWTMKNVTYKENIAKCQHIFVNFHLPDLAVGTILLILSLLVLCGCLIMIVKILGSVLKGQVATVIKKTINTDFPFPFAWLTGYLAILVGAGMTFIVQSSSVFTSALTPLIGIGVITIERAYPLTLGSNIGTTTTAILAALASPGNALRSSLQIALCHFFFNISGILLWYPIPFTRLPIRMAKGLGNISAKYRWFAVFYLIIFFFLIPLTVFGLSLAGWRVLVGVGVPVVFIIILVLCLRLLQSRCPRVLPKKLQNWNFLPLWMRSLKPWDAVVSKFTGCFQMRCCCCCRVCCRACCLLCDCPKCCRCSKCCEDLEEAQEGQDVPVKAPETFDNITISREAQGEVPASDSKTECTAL

[6] = biological target: T4, human sodium-dependent phosphate …; test: flow cytometry, HEK293-6e cells transfected with human NaPi2b; apparent Kd

B1: v38591 (humanized anti-NaPi2b antibody, wild-type Fc) (antibody, human IgG1, kappa)
heavy: not shown
light: DVQMTQSPSSLSASVGDRVTITCRASQDVYSYLNWYQQKPGKAVKLLIYYTSRLQSGVPSRFSGSGSGTDYTLTISSLQPEDFATYYCQQYNIFPWTFGQGTKLEIKRTVAAPSVFIFPPSDEQLKSGTASVVCLLNNFYPREAKVQWKVDNALQSGNSQESVTEQDSKDSTYSLSSTLTLSKADYEKHKVYACEVTHQGLSSPVTKSFNRGEC
notes: also called v38591 Wild-type; H1L2
Cynomolgus monkey NaPi2b [1]
  EC50 (read off the curve): ~0.3 nM
Mouse NaPi2b
  EC50 (read off the curve): ~0.3 nM

B2: v38591 (humanized anti-NaPi2b antibody, H1L2, wild-type Fc, heavy chains with C-terminal lysine) (antibody, human IgG1, kappa)
heavy: not shown
light: B1 light
notes: Full-size human IgG1/kappa antibody; also called v38591 (wild-type Fc)
[2]
  Background-Subtracted AF647 Mean Fluorescence Intensity: 1120 MFI

B3: palivizumab (v21995), anti-RSV antibody, negative control (antibody, human IgG1, kappa, V domains shown)
VH: QVTLRESGPALVKPTQTLTLTCTFSGFSLSTSGMSVGWIRQPPGKALEWLADIWWDDKKDYNPSLKSRLTISKDTSKNQVVLKVTNMDPADTATYYCARSMITNWYFDVWGAGTTVTVSS
VL: DIQMTQSPSTLSASVGDRVTITCKSQLSVGYMHWYQQKPGKAPKLLIYDTSKLASGVPSRFSGSGSGTEFTLTISSLQPDDFATYYCFQGSGYPFTFGGGTKLEIKR
[2]
  Background-Subtracted AF647 Mean Fluorescence Intensity: 39 MFI

B4: lifastuzumab (v18993), reference anti-NaPi2b antibody (antibody, human IgG1, kappa)
heavy 1: GEVQLVESGGGLVQPGGSLRLSCAASGFSFSDFAMSWVRQAPGKGLEWVATIGRVAFHTYYPDSMKGRFTISRDNSKNTLYLQMNSLRAEDTAVYYCARHRGFDVGHFDFWGQGTLVTVSSASTKGPSVFPLAPSSKSTSGGTAALGCLVKDYFPEPVTVSWNSGALTSGVHTFPAVLQSSGLYSLSSVVTVPSSSLGTQTYICNVNHKPSNTKVDKKVEPKSCDKTHTCPPCPAPELLGGPSVFLFPPKPKDTLMISRTPEVTCVVVDVSHEDPEVKFNWYVDGVEVHNAKTKPREEQYNSTYRVVSVLTVLHQDWLNGKEYKCKVSNKALPAPIEKTISKAKGQPREPQVYVYPPSRDELTKNQVSLTCLVKGFYPSDIAVEWESNGQPENNYKTTPPVLDSDGSFALVSKLTVDKSRWQQGNVFSCSVMHEALHNHYTQKSLSLSPG
heavy 2: not shown
light: GDIQMTQSPSSLSASVGDRVTITCRSSETLVHSSGNTYLEWYQQKPGKAPKLLIYRVSNRFSGVPSRFSGSGSGTDFTLTISSLQPEDFATYYCFQGSFNPLTFGQGTKVEIKRTVAAPSVFIFPPSDEQLKSGTASVVCLLNNFYPREAKVQWKVDNALQSGNSQESVTEQDSKDSTYSLSSTLTLSKADYEKHKVYACEVTHQGLSSPVTKSFNRGEC
[2]
  Background-Subtracted AF647 Mean Fluorescence Intensity: 920 MFI

B5: v18992 (MX35), reference anti-NaPi2b antibody (antibody, human IgG1, kappa)
heavy 1: GQVQLVQSGAEVVKPGASVKMSCKASGYTFTGYNIHWVKQAPGQGLEWIGAIYPGNGDTSYKQKFRGRATLTADTSTSTVYMELSSLRSEDSAVYYCARGETARATFAYWGQGTLVTVSSASTKGPSVFPLAPSSKSTSGGTAALGCLVKDYFPEPVTVSWNSGALTSGVHTFPAVLQSSGLYSLSSVVTVPSSSLGTQTYICNVNHKPSNTKVDKKVEPKSCDKTHTCPPCPAPELLGGPSVFLFPPKPKDTLMISRTPEVTCVVVDVSHEDPEVKFNWYVDGVEVHNAKTKPREEQYNSTYRVVSVLTVLHQDWLNGKEYKCKVSNKALPAPIEKTISKAKGQPREPQVYVYPPSRDELTKNQVSLTCLVKGFYPSDIAVEWESNGQPENNYKTTPPVLDSDGSFALVSKLTVDKSRWQQGNVFSCSVMHEALHNHYTQKSLSLSPG
heavy 2: not shown
light: GDIQMTQSPSSLSASVGDRVTITCSASQDIGNFLNWYQQKPGKTVKVLIYYTSSLYSGVPSRFSGSGSGTDYTLTISSLQPEDFATYYCQQYSKLPLTFGQGTKLELKRTVAAPSVFIFPPSDEQLKSGTASVVCLLNNFYPREAKVQWKVDNALQSGNSQESVTEQDSKDSTYSLSSTLTLSKADYEKHKVYACEVTHQGLSSPVTKSFNRGEC
Cynomolgus monkey NaPi2b [3]
  Bmax: 2360
Cynomolgus monkey NaPi2b [4]
  Kd: 31 nM
[5]
  Bmax: 1900
[6]
  Kd: 1.98 nM

B6: MX35 (v18992), reference anti-NaPi2b antibody (antibody, human IgG1, kappa)
heavy 1: B5 heavy 1
heavy 2: not shown
light: B5 light
[2]
  Background-Subtracted AF647 Mean Fluorescence Intensity: 930 MFI
